Data on 59 substances can be found in the supplement of paper PMC10598134.

A short description of the data set: collision cross section of modified peptide (TIMS, N2, iRT-aligned); higher = larger / more extended gas-phase ion. Summed up: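 On a timsTOF Pro/HT (dda-PASEF, nitrogen, ~2.4 mbar), synthetic peptide pools were analysed after a 120-min nanoflow C18 separation at 60 °C and identified in MaxQuant. Three reference ions served for 1/K0 calibration, with run-wise alignment to the median iRT peptide deviation. Collision cross section comes from the Mason-Schamp equation, using the most abundant feature per charge state averaged over 1–3 technical replicates.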

Setting [1] is: charge state: 2, modification: Dimethyl (K).
Setting [2] is: charge state: 3, modification: Dimethyl (K).
Setting [3] is: charge state: 2, modification: Acetyl (K).
[4] abbreviates: charge state: 3, modification: Acetyl (K).
Setting [5] is: charge state: 2, modification: Butyryl.
The mark [6] stands for this setting: charge state: 3, modification: Butyryl.
The mark [7] stands for this setting: charge state: 2, modification: Crotonyl.
Where [8] appears, read: charge state: 3, modification: Crotonyl.
Where [9] appears, read: charge state: 2, modification: Phospho (Y).
Where [10] appears, read: charge state: 2, modification: Nitro (Y).
The mark [11] stands for this setting: charge state: 2, modification: Succinyl.
[12] abbreviates: charge state: 2, modification: Formyl.
[13] abbreviates: charge state: 2, modification: Methyl (K).
The mark [14] stands for this setting: charge state: 3, modification: Methyl (K).
Setting [15] is: charge state: 2, modification: GlyGly (K).
Setting [16] is: charge state: 3, modification: GlyGly (K).
The mark [17] stands for this setting: charge state: 2, modification: Malonyl.
Where [18] appears, read: charge state: 3, modification: Succinyl.
The mark [19] stands for this setting: charge state: 2, modification: hydroxyisobutyryl.
Where [20] appears, read: charge state: 3, modification: hydroxyisobutyryl.
Where [21] appears, read: charge state: 2, modification: Propionyl.
The mark [22] stands for this setting: charge state: 3, modification: Malonyl.
[23] abbreviates: charge state: 2, modification: Biotin.
Where [24] appears, read: charge state: 3, modification: Biotin.
Where [25] appears, read: charge state: 2, modification: Glutarylation.
[26] abbreviates: charge state: 2, modification: Citrullination (R).
The mark [27] stands for this setting: charge state: 3, modification: Citrullination (R).

± gives the standard deviation.

“VDIDAPDVSIEGPDAKLK [_VDIDAPDVSIEGPDAK(Dimethyl (K))LK_]”: the collision cross section reads like this: under setting [1], 457.63 ± 1.8 Å²; under setting [2], 550.49 ± 0.63 Å². Regarding “LLFSNTAAQKLR [_LLFSNTAAQK(Acetyl (K))LR_]”, the collision cross section by setting is: under setting [3], 400.1 ± 2.9 Å²; under setting [4], 478.35 ± 0.83 Å².

Turning to SPDEAYAIAKK [_SPDEAYAIAK(Butyryl)K_], the collision cross section was 376.59 ± 1.2 Å² under setting [5] and 446.36 ± 0.47 Å² under setting [6]. With “GETASKLQSEISR [_GETASK(Crotonyl)LQSEISR_]”, the collision cross section under setting [7] is reported as 388.79 ± 0.79 Å² and the collision cross section under setting [8] is on record as 466.94 ± 1.6 Å². Substance DLYEPSHGAK [_DLY(Phospho (Y))EPSHGAK_] returned a collision cross section under setting [9] of 375.68 ± 0.063 Å². For the substance AYPLADAHLTK [_AY(Nitro (Y))PLADAHLTK_], the collision cross section under setting [10] is on record as 382.67 ± 0.55 Å².

Turning to ASNAAVKLAESK [_ASNAAVK(Succinyl)LAESK_], the collision cross section under setting [11] is reported as 372.84 ± 0.87 Å². As to “VDIDAPDVSIEGPDAKLK [_VDIDAPDVSIEGPDAK(Formyl)LK_]”, the collision cross section under setting [12] is 461.12 Å². With “ATVASSTQKFQDLGVK [_ATVASSTQK(Methyl (K))FQDLGVK_]”, the collision cross section is, setting by setting: under setting [13], 464.26 ± 2.2 Å²; under setting [14], 478.87 ± 3.4 Å². In the case of “DLSTVEALQNLKNLK [_DLSTVEALQNLK(GlyGly (K))NLK_]”, the collision cross section is, setting by setting: under setting [15], 473.91 ± 4.8 Å²; under setting [16], 514.39 ± 5.7 Å². IGNSYFKEEK [_IGNSYFK(GlyGly (K))EEK_]: the collision cross section is, setting by setting: under setting [15], 386.48 ± 0.54 Å²; under setting [16], 442.05 ± 1.6 Å². For “SNEEGSEEKGPEVR [_SNEEGSEEK(Malonyl)GPEVR_]”, the collision cross section under setting [17] was 402.09 ± 1.6 Å².

On to “VDVEVPDVSLEGPEGKLK [_VDVEVPDVSLEGPEGK(Succinyl)LK_]”, for which the collision cross section reads like this: under setting [11], 456.12 ± 0.34 Å²; under setting [18], 501.13 ± 1.5 Å².

GAEKTEVAEPR [_GAEK(Methyl (K))TEVAEPR_] yielded a collision cross section under setting [13] of 369.74 ± 0.22 Å² and a collision cross section under setting [14] of 441.71 ± 4.3 Å².

In turn, “YSTSGSSGLTTGK [_Y(Nitro (Y))STSGSSGLTTGK_]” returned a collision cross section under setting [10] of 371.62 ± 0.55 Å².

“GGPGSTLSFVGKR [_GGPGSTLSFVGK(Crotonyl)R_]”: the collision cross section is, setting by setting: under setting [7], 386.64 ± 0.27 Å²; under setting [8], 427.61 ± 1.6 Å². In the case of “GFALVGVGSEASSKK [_GFALVGVGSEASSK(Dimethyl (K))K_]”, the collision cross section by setting is: under setting [1], 439.69 ± 1.2 Å²; under setting [2], 485.09 ± 1.2 Å².

On to “VSPASSVDSNIPSSQGYKK [_VSPASSVDSNIPSSQGYK(Succinyl)K_]”, for which the collision cross section reads like this: under setting [11], 467.79 ± 1.1 Å²; under setting [18], 548.84 ± 1.1 Å². Turning to SEASSEFAKK [_SEASSEFAK(Methyl (K))K_], the collision cross section was 357.88 ± 2.5 Å² under setting [13] and 426.48 ± 2.6 Å² under setting [14]. DHLSDKESK [_DHLSDK(Butyryl)ESK_] showed a collision cross section under setting [5] of 355.58 ± 0.7 Å².

Consider “SLEEEGAAHSGKR [_SLEEEGAAHSGK(Butyryl)R_]”, for which the collision cross section runs as follows: under setting [5], 418.69 ± 0.77 Å²; under setting [6], 478.81 ± 1.8 Å². As to “GFALVGVGSEASSKK [_GFALVGVGSEASSK(hydroxyisobutyryl)K_]”, the collision cross section reads like this: under setting [19], 419.49 ± 2.2 Å²; under setting [20], 502.54 ± 2.1 Å². In turn, LTEKELAEAASK [_LTEK(Formyl)ELAEAASK_] returned a collision cross section under setting [12] of 382.92 ± 0.9 Å².

Regarding “GEVGAGAGPGAQAGPSAKR [_GEVGAGAGPGAQAGPSAK(Acetyl (K))R_]”, the collision cross section was determined as 420.33 ± 2.6 Å² under setting [3] and 478.86 ± 2.4 Å² under setting [4]. In turn, SGFGKFER [_SGFGK(Formyl)FER_] yielded a collision cross section under setting [12] of 326.95 ± 0.99 Å². In turn, “GEVQVSDKER [_GEVQVSDK(hydroxyisobutyryl)ER_]” yielded a collision cross section under setting [19] of 366.78 ± 0.27 Å². Substance “SLFFGGKGAPLQR [_SLFFGGK(Succinyl)GAPLQR_]” registered a collision cross section under setting [11] of 401.28 ± 0.38 Å². LAEQEAHYAVR [_LAEQEAHY(Nitro (Y))AVR_]: the collision cross section is, setting by setting: under setting [10], 388.92 ± 0.55 Å²; (charge state: 3, modification: Nitro (Y)) 469.49 ± 1.9 Å².

Take “ALASIDSKLNQAK [_ALASIDSK(GlyGly (K))LNQAK_]”: the collision cross section came to 417.48 ± 0.98 Å² under setting [15] and 469.2 ± 1.3 Å² under setting [16]. Under setting [21], LEQVEKELLR [_LEQVEK(Propionyl)ELLR_] came in with a collision cross section of 387.92 ± 0.44 Å². Turning to “SSGPGGQNVNKVNSK [_SSGPGGQNVNK(Malonyl)VNSK_]”, the collision cross section is reported as 402.61 ± 1.8 Å² under setting [17] and 439.94 ± 2.2 Å² under setting [22]. Under setting [5], “TTGFYSGFSEVAEKR [_TTGFYSGFSEVAEK(Butyryl)R_]” had a collision cross section of 442.26 ± 0.29 Å².

In the case of “SSGPGGQNVNKVNSK [_SSGPGGQNVNK(Biotin)VNSK_]”, the collision cross section was 422.28 ± 2 Å² under setting [23] and 467.62 ± 0.34 Å² under setting [24]. For TYVQDILR [_TY(Phospho (Y))VQDILR_], the collision cross section under setting [9] turned out to be 359.66 ± 0.65 Å². Turning to SKLLFSNTAAQK [_SK(Succinyl)LLFSNTAAQK_], the collision cross section under setting [11] was 398.22 ± 0.77 Å².

Substance LAEEENKAK [_LAEEENK(Acetyl (K))AK_] registered a collision cross section under setting [3] of 348.53 ± 3.9 Å².

As for SGFGKFER [_SGFGK(Gluratylation)FER_], under setting [25], the collision cross section is reported as 340.69 ± 0.69 Å². For the substance “VLTANSNPSSPSAAKR [_VLTANSNPSSPSAAK(Crotonyl)R_]”, the collision cross section was determined as 433.68 ± 1.1 Å² under setting [7] and 528.16 ± 1.7 Å² under setting [8]. For VTLEVGKVIQQGR [_VTLEVGK(Biotin)VIQQGR_], the collision cross section is given as 422.26 Å² under setting [23] and 501.27 Å² under setting [24]. SYVDTGGVSR [_SY(Phospho (Y))VDTGGVSR_] returned a collision cross section under setting [9] of 347.56 ± 0.066 Å². Under setting [10], PATSYVR [_PATSY(Nitro (Y))VR_] yielded a collision cross section of 318.95 ± 2.2 Å². Consider LQLEIDQKK [_LQLEIDQK(Methyl (K))K_], for which the collision cross section runs as follows: under setting [13], 367.47 ± 2.8 Å²; under setting [14], 429.39 ± 5.2 Å².

“GSHGQTPSPGALPLGR [_GS(HexNAc (ST))HGQTPSPGALPLGR_]” registered a collision cross section (charge state: 3, modification: HexNAc (ST)) of 494.18 ± 4.8 Å².

On to “IHNAENIQPGEQKYEYK [_IHNAENIQPGEQK(Malonyl)YEYK_]”, for which, under setting [22], the collision cross section worked out at 527.67 ± 2.8 Å².

As to “ALLQAKASGK [_ALLQAK(hydroxyisobutyryl)ASGK_]”, under setting [19], the collision cross section is 353.14 ± 1.3 Å². For “DTPTSAGPNSFNKGK [_DTPTSAGPNSFNK(Acetyl (K))GK_]”, the collision cross section under setting [3] stood at 406.79 ± 1.5 Å².

Regarding “LQAAYAGDKADDIQK [_LQAAYAGDK(Propionyl)ADDIQK_]”, the collision cross section under setting [21] was 432.96 ± 1.1 Å².

Take “SDSGKPYYYNSQTK [_SDSGK(Biotin)PYYYNSQTK_]”: the collision cross section under setting [23] was 440.01 ± 0.23 Å². Regarding “AAYQAAIRGVGSAQSR [_AAYQAAIR(Methyl (R))GVGSAQSR_]”, the collision cross section reads like this: (charge state: 2, modification: Methyl (R)) 442.78 ± 1 Å²; (charge state: 3, modification: Methyl (R)) 510.48 ± 1.7 Å². For the substance “YSSSSIPEPFGSRGSPR [_YSSSSIPEPFGSR(Citrullination (R))GSPR_]”, the collision cross section runs as follows: under setting [26], 439.28 ± 0.2 Å²; under setting [27], 523.88 Å². DFDTALKHYDK [_DFDTALK(Succinyl)HYDK_] showed a collision cross section under setting [11] of 404.59 ± 1.1 Å² and a collision cross section under setting [18] of 465.49 ± 2.9 Å². Take “SEASSEFAKK [_SEASSEFAK(Gluratylation)K_]”: under setting [25], the collision cross section turned out to be 358.01 ± 0.65 Å².

In the case of “VPTTEKPTVTVNFR [_VPTTEK(Gluratylation)PTVTVNFR_]”, the collision cross section reads like this: under setting [25], 428.25 ± 0.47 Å²; (charge state: 3, modification: Glutarylation) 516.1 ± 2.5 Å². Take “GPPRGGPGGELPR [_GPPR(Citrullination (R))GGPGGELPR_]”: the collision cross section runs as follows: under setting [26], 368.26 ± 0.27 Å²; under setting [27], 454.52 ± 3.7 Å². As for FHYQDQEFLK [_FHY(Phospho (Y))QDQEFLK_], the collision cross section is 397.81 ± 0.64 Å² under setting [9] and 447.23 ± 0.12 Å² (charge state: 3, modification: Phospho (Y)). Under setting [9], GEYFGEK [_GEY(Phospho (Y))FGEK_] displayed a collision cross section of 321.93 ± 0.65 Å². In turn, ALLQAKASGK [_ALLQAK(Crotonyl)ASGK_] gave a collision cross section under setting [7] of 351.6 ± 1.3 Å². Turning to SEGFDTYR [_SEGFDTY(Nitro (Y))R_], the collision cross section under setting [10] is 336.07 ± 0.95 Å². On to “IINEPTAAAIAYGLDKK [_IINEPTAAAIAYGLDK(hydroxyisobutyryl)K_]”, for which the collision cross section reads like this: under setting [19], 464.51 ± 4.5 Å²; under setting [20], 564.39 ± 3 Å².
